One data set has as its target T1, PARLSkd3 (human CLPB) (Homo sapiens, UniProt Q9H078).
T1 sequence (Q9H078 127-707): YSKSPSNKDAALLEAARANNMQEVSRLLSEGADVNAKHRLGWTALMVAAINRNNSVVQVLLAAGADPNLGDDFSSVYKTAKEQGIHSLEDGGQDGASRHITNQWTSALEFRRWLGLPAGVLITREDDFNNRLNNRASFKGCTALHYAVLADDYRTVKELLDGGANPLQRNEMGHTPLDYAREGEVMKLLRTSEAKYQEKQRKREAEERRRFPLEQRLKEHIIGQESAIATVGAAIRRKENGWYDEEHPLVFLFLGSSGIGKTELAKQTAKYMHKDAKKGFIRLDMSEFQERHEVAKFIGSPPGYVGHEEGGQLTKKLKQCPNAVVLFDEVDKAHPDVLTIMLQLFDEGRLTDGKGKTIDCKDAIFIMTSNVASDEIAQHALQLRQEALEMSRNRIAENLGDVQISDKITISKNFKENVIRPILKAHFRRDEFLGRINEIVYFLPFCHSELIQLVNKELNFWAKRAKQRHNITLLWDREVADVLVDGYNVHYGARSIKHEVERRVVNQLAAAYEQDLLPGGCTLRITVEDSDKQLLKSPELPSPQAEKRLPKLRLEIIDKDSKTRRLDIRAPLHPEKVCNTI
The data set is classed as biochemical.

The target of another data set is _(PARL)Skd3^NBD (human). Nature of the data set: cryo-EM structure.
Data set [1] addresses _(PARL)Skd3^Δ1-2 (ankyrin repeats 1 and 2 deleted, ΔY127-G196) (human). Nature of the data set: cryo-EM structure.
Data set [2] has the same target. Nature of the data set: SEC.
The data set “SEC” concerns the molecule itself. Nature of the data set: SEC. In general terms: SEC sorts molecules by how far they enter the pores of the column.
For data set [3], the target named is Casein fluorescein isothiocyanate from bovine milk (FITC-casein) (bovine). Nature of the data set: fluorescence polarisation.
The target is the same in data set [4]. Put plainly: fluorescence polarisation. The source holds these as a separate data set.
The target is the same in data set [5]. Put plainly: fluorescence polarisation. The source holds these as a separate data set. For orientation: Fluorescence polarisation rises when a labelled molecule tumbles more slowly, as on binding a larger partner.
Data set [6] concerns the molecule itself.

Values joined by “and” are separate entries in the source; they are usually repeats but may differ in a detail not shown here. Equal entries are not always repeated. Where two headings read alike, the source gives them in different places.

Sequence of Casein fluorescein isothiocyanate from bovine milk (FITC-casein) (bovine) (P02662 16-214): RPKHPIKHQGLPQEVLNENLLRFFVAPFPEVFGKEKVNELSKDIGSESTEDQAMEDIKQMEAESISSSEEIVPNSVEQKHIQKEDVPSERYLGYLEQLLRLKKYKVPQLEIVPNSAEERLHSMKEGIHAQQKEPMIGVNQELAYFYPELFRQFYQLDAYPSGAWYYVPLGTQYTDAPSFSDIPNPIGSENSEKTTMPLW

In the case of `Nc1ncnc2c1ncn2[C@@H]1O[C@H](CO[P@](=O)(O)O[P@](=O)(O)O[P@@](=O)(O)S)[C@@H](O)[C@H]1O` [ATPγS], the IC50 against PARLSkd3 (human CLPB) is ~242 µM. Still for that read-out and setting: the same measure for `Nc1ncnc2c1ncn2[C@@H]1O[C@H](COP(=O)(O)OP(=O)(O)O)[C@@H](O)[C@H]1O` [ADP]: ~1200 µM.

_(PARL)Skd3^NBD (domain or fragment) came in with a stoichiometry N in the data set with _(PARL)Skd3^NBD (human) of 6. Regarding “_(PARL)Skd3^Δ1-2 (ankyrin repeats 1 and 2 deleted, ΔY127-G196) (enzyme)”, the stoichiometry N in data set [1] worked out at 18; in data set [2], 12.

B1: _(PARL)Skd3^ΔL507-I534 (NBD insertion deleted) (enzyme, human, UniProt Q9H078 127-707, looked up)
chain: YSKSPSNKDAALLEAARANNMQEVSRLLSEGADVNAKHRLGWTALMVAAINRNNSVVQVLLAAGADPNLGDDFSSVYKTAKEQGIHSLEDGGQDGASRHITNQWTSALEFRRWLGLPAGVLITREDDFNNRLNNRASFKGCTALHYAVLADDYRTVKELLDGGANPLQRNEMGHTPLDYAREGEVMKLLRTSEAKYQEKQRKREAEERRRFPLEQRLKEHIIGQESAIATVGAAIRRKENGWYDEEHPLVFLFLGSSGIGKTELAKQTAKYMHKDAKKGFIRLDMSEFQERHEVAKFIGSPPGYVGHEEGGQLTKKLKQCPNAVVLFDEVDKAHPDVLTIMLQLFDEGRLTDGKGKTIDCKDAIFIMTSNVASDEIAQHATISKNFKENVIRPILKAHFRRDEFLGRINEIVYFLPFCHSELIQLVNKELNFWAKRAKQRHNITLLWDREVADVLVDGYNVHYGARSIKHEVERRVVNQLAAAYEQDLLPGGCTLRITVEDSDKQLLKSPELPSPQAEKRLPKLRLEIIDKDSKTRRLDIRAPLHPEKVCNTI
B1: the “stoichiometry N” value in the data set “SEC” was 12.

B2: PARL-protease-activated Skd3 (human CLPB), wild type (enzyme)
chain: YSKSPSNKDAALLEAARANNMQEVSRLLSEGADVNAKHRLGWTALMVAAINRNNSVVQVLLAAGADPNLGDDFSSVYKTAKEQGIHSLEDGGQDGASRHITNQWTSALEFRRWLGLPAGVLITREDDFNNRLNNRASFKGCTALHYAVLADDYRTVKELLDGGANPLQRNEMGHTPLDYAREGEVMKLLRTSEAKYQEKQRKREAEERRRFPLEQRLKEHIIGQESAIATVGAAIRRKENGWYDEEHPLVFLFLGSSGIGKTELAKQTAKYMHKDAKKGFIRLDMSEFQERHEVAKFIGSPPGYVGHEEGGQLTKKLKQCPNAVVLFDEVDKAHPDVLTIMLQLFDEGRLTDGKGKTIDCKDAIFIMTSNVASDEIAQHALQLRQEALEMSRNRIAENLGDVQISDKITISKNFKENVIRPILKAHFRRDEFLGRINEIVYFLPFCHSELIQLVNKELNFWAKRAKQRHNITLLWDREVADVLVDGYNVHYGARSIKHEVERRVVNQLAAAYEQDLLPGGCTLRITVEDSDKQLLKSPELPSPQAEKRLPKLRLEIIDKDSKTRRLDIRAPLHPEKVCNTI
Turning to B2, the Kd in data set [3] turned out to be 0.4 µM; in [4] it was 0.1 µM; in data set [5] it was 0.5 µM.

B3: _(PARL)Skd3^ΔL (ANK linker deleted, ΔD197-A262) (enzyme, human, UniProt Q9H078 127-707, looked up)
chain: YSKSPSNKDAALLEAARANNMQEVSRLLSEGADVNAKHRLGWTALMVAAINRNNSVVQVLLAAGADPNLGSFKGCTALHYAVLADDYRTVKELLDGGANPLQRNEMGHTPLDYAREGEVMKLLRTSEAKYQEKQRKREAEERRRFPLEQRLKEHIIGQESAIATVGAAIRRKENGWYDEEHPLVFLFLGSSGIGKTELAKQTAKYMHKDAKKGFIRLDMSEFQERHEVAKFIGSPPGYVGHEEGGQLTKKLKQCPNAVVLFDEVDKAHPDVLTIMLQLFDEGRLTDGKGKTIDCKDAIFIMTSNVASDEIAQHALQLRQEALEMSRNRIAENLGDVQISDKITISKNFKENVIRPILKAHFRRDEFLGRINEIVYFLPFCHSELIQLVNKELNFWAKRAKQRHNITLLWDREVADVLVDGYNVHYGARSIKHEVERRVVNQLAAAYEQDLLPGGCTLRITVEDSDKQLLKSPELPSPQAEKRLPKLRLEIIDKDSKTRRLDIRAPLHPEKVCNTI
In the case of B3, the “stoichiometry N” value in the data set “SEC” was 12 and 6.

B4: _(PARL)Skd3^ΔL660-I707 (lacking the CTD) (enzyme, human, UniProt Q9H078 127-707, looked up)
chain: YSKSPSNKDAALLEAARANNMQEVSRLLSEGADVNAKHRLGWTALMVAAINRNNSVVQVLLAAGADPNLGDDFSSVYKTAKEQGIHSLEDGGQDGASRHITNQWTSALEFRRWLGLPAGVLITREDDFNNRLNNRASFKGCTALHYAVLADDYRTVKELLDGGANPLQRNEMGHTPLDYAREGEVMKLLRTSEAKYQEKQRKREAEERRRFPLEQRLKEHIIGQESAIATVGAAIRRKENGWYDEEHPLVFLFLGSSGIGKTELAKQTAKYMHKDAKKGFIRLDMSEFQERHEVAKFIGSPPGYVGHEEGGQLTKKLKQCPNAVVLFDEVDKAHPDVLTIMLQLFDEGRLTDGKGKTIDCKDAIFIMTSNVASDEIAQHALQLRQEALEMSRNRIAENLGDVQISDKITISKNFKENVIRPILKAHFRRDEFLGRINEIVYFLPFCHSELIQLVNKELNFWAKRAKQRHNITLLWDREVADVLVDGYNVHYGARSIKHEVERRVVNQLAAAYEQDLLPGGCTLRITVEDSDKQ
Consider B4, for which, in data set [6], the “stoichiometry N” value is 6 and 12.

What is called IC50 is the concentration that gives 50% inhibition. A higher IC50 goes with weaker potency in that assay. One may read the stoichiometry N as a count of units in the complex or per binding partner. The term Kd denotes the equilibrium constant for the complex coming apart. The low end stands for a tighter complex, the high end for a looser complex.
